Results from patent US20200040081A1 (SURFACE ONCOLOGY, published 2020).

B1: Antibody 15 (antibody, V domains shown)
VH: EVQLVESGGGLVQPGRSLRLSCTASGFTFGDVAMSWFRQAPGKGLEWVGYIGSKAYGGETEYTASVKGRFTISRDGSKSIAYLQMNSLKTEDTAVYYCARAGHSYGSIASNWFDPWGQGTLVTVSS
VL: DIQMTQSPSSLSASVGDRVTITCRASQSISSYLNWYQQKPGKAPKLLIYGASSLQSGVPSRFSGSGSGTDFTLTISSLQPEDFATYYCQQGFYTPWTFGGGTKVEIK
notes: Tested as IgG detected with anti-human IgG Fc, compared with an IgG1 isotype control; also called antibody clone number 15; clone 15
B2: Antibody 38 (antibody, V domains shown)
VH: EVQLLESGGGLVQPGGSLRLSCAASGFTFSGHLMSWVRQAPGKGLEWVSAISGSAGETYYADSVKGRFTISRDNSKNTLYLQMNSLRAEDTAVYYCARDAYYDDWSGWADWYFDLWGRGTLVTVSS
VL: EIVLTQSPATLSLSPGERATLSCRASQSVSRYLAWYQQKPGQAPRLLIYDASNRATGIPARFSGSGSGTDFTLTISSLEPEDFAVYYCQQVSLLPPTFGGGTKVEIK
notes: Tested as IgG detected with anti-human IgG Fc, compared with an IgG1 isotype control; also called antibody clone number 38; clone 38
B3: Antibody 32 (antibody, V domains shown)
VH: QVQLVQSGAEVKKPGSSVKVSCKASGGTFSSYAISWVRQAPGQGLEWMGGIIPISGTANYAQKFQGRVTITADESTSTAYMELSSLRSEDTAVYYCARDTGRGYTRHFWFDPWGQGTLVTVSS
VL: DIQMTQSPSSLSASVGDRVTITCRASQSISSYLNWYQQKPGKAPKLLIYAASSLQSGVPSRFSGSGSGTDFTLTISSLQPEDFATYYCQQSDILYTFGGGTKVEIK
notes: Tested as IgG detected with anti-human IgG Fc, compared with an IgG1 isotype control; Parent of antibodies 33, 34, 35 and 36; also called antibody clone number 32; parent clone 32
B4: Antibody 46 (antibody, V domains shown)
VH: EVQLVESGGGLVQPGRSLRLSCTASGFTFGDYAMSWFRQAPGKGLEWVGFIGSKAYGGTTEYTASVKGRFTISRDGSKSIAYLQMNSLKTEDTAVYYCARGPRRYTYGMDVWGQGTTVTVSS
VL: DIQMTQSPSSLSASVGDRVTITCRASQSISSYLNWYQQKPGKAPKLLIYAASSLQSGVPSRFSGSGSGTDFTLTISSLQPEDFATYYCQQSSTPLTFGGGTKVEIK
notes: also called antibody clone number 46; clone 46
B5: Antibody 33 (antibody, V domains shown)
VH: QVQLVQSGAEVKKPGSSVKVSCKASGGTFGNYAISWVRQAPGQGLEWMGGIIPIPGIANYAQKFQGRVTITADESTSTAYMELSSLRSEDTAVYYCARDTGRGYTRHFWFDPWGQGTLVTVSS
VL: DIQMTQSPSSLSASVGDRVTITCRASQSISSYLNWYQQKPGKAPKLLIYAASSLQSGVPSRFSGSGSGTDFTLTISSLQPEDFATYYCQQSDILYTFGGGTKVEIK
notes: Tested as IgG detected with anti-human IgG Fc, compared with an IgG1 isotype control; also called antibody clone number 33; clone 33
B6: Antibody 36 (antibody, V domains shown)
VH: QVQLVQSGAEVKKPGSSVKVSCKASGGTFATYAISWVRQAPGQGLEWMGGIFPLSGTANYAQKFQGRVTITADESTSTAYMELSSLRSEDTAVYYCARDTGRGYTRHFWFDPWGQGTLVTVSS
VL: DIQMTQSPSSLSASVGDRVTITCRASQSISSYLNWYQQKPGKAPKLLIYAASSLQSGVPSRFSGSGSGTDFTLTISSLQPEDFATYYCQQSDILYTFGGGTKVEIK
notes: Tested as IgG detected with anti-human IgG Fc, compared with an IgG1 isotype control; also called antibody clone number 36; clone 36
B7: Antibody 58 (antibody, V domains shown)
VH: EVQLVESGGGLVQPGRSLRLSCTASGFTFGDYAMSWFRQAPGKGLEWVGFIGSKFYGGETEYTASVKGRFTISRDGSKSIAYLQMNSLKTEDTAVYYCARGPRRYTYGMDVWGQGTTVTVSS
VL: DIQMTQSPSSLSASVGDRVTITCRASQSISSYLNWYQQKPGKAPKLLIYAASSLQSGVPSRFSGSGSGTDFTLTISSLQPEDFATYYCQQSSTPLTFGGGTKVEIK
notes: Tested as IgG detected with anti-human IgG Fc, compared with an IgG1 isotype control; also called antibody clone number 58; clone 58
B8: Antibody 35 (antibody, V domains shown)
VH: QVQLVQSGAEVKKPGSSVKVSCKASGGTFSSAAISWVRQAPGQGLEWMGNIIPIVGIANYAQKFQGRVTITADESTSTAYMELSSLRSEDTAVYYCARDTGRGYTRHFWFDPWGQGTLVTVSS
VL: DIQMTQSPSSLSASVGDRVTITCRASQSISSYLNWYQQKPGKAPKLLIYAASSLQSGVPSRFSGSGSGTDFTLTISSLQPEDFATYYCQQSDILYTFGGGTKVEIK
notes: Tested as IgG detected with anti-human IgG Fc, compared with an IgG1 isotype control; also called antibody clone number 35; clone 35
B9: Antibody 34 (antibody, V domains shown)
VH: QVQLVQSGAEVKKPGSSVKVSCKASGGTFSSAAISWVRQAPGQGLEWMGGIFPISGHANYAQKFQGRVTITADESTSTAYMELSSLRSEDTAVYYCARDTGRGYTRHFWFDPWGQGTLVTVSS
VL: DIQMTQSPSSLSASVGDRVTITCRASQSISSYLNWYQQKPGKAPKLLIYAASSLQSGVPSRFSGSGSGTDFTLTISSLQPEDFATYYCQQSDILYTFGGGTKVEIK
notes: Tested as IgG detected with anti-human IgG Fc, compared with an IgG1 isotype control; also called antibody clone number 34; clone 34
B10: Antibody 10 (antibody, V domains shown)
VH: EVQLVESGGGLVQPGRSLRLSCAASGFTFDDYAVHWVRQAPGKGLEWVSGISWSSGLIGYADSVKGRFTISRDNAKNSLYLQMNSLRAEDTAVYYCAKGPPTYQDYFDLWGRGTLVTVSS
VL: EIVLTQSPATLSLSPGERATLSCRASQSVSRYLAWYQQKPGQAPRLLIYDASNRATGIPARFSGSGSGTDFTLTISSLEPEDFAVYYCQQVSFFPPITFGGGTKVEIK
notes: Tested as IgG detected with anti-human IgG Fc, compared with an IgG1 isotype control; also called antibody clone number 10; clone 10
B11: Antibody 44 (antibody, V domains shown)
VH: QVQLVQSGAEVKKPGSSVKVSCKASGGTFDNYYISWVRQAPGQGLEWMGGIFPIFGTANYAQKFQGRVTITADESTSTAYMELSSLRSEDTAVYYCAREVGHYSGSPYYMDVWGKGTTVTVSS
VL: DIQMTQSPSTLSASVGDRVTITCRASQSINSWLAWYQQKPGKAPKLLISDASSLESGVPSRFSGSGSGTEFTLTISSLQPDDFATYYCQQVGPYLTFGGGTKVEIK
notes: Tested as IgG detected with anti-human IgG Fc, compared with an IgG1 isotype control; also called antibody clone number 44; clone 44
B12: Antibody 2 (antibody, V domains shown)
VH: EVQLVESGGGLVKPGGSLRLSCAASGFTFSEYTMNWVRQAPGKGLEWVSAIVGSGDSTYYADSVKGRFTISRDNSKNTLYLQMNSLRAEDTAVYYCAKDYSSGDWIDYGMDVWGQGTTVTVSS
VL: DIQMTQSPSSLSASVGDRVTITCQASQDISNYLNWYQQKPGKAPKLLIYDASNLATGVPSRFSGSGSGTDFTFTISSLQPEDIATYYCQQFDLLPPTFGGGTKVEIK
notes: Tested as IgG detected with anti-human IgG Fc, compared with an IgG1 isotype control; also called antibody clone number 2; clone 2
B13: Antibody 5 (antibody, V domains shown)
VH: EVQLLESGGGLVQPGGSLRLSCAASGFTFSDYAMIWVRQAPGKGLEWVSAISGGGESTYYADSVKGRFTISRDNSKNTLYLQMNSLRAEDTAVYYCAKDYSSGDWIDYGMDVWGQGTTVTVSS
VL: DIQMTQSPSSLSASVGDRVTITCQASQDISNYLNWYQQKPGKAPKLLIYDASNLATGVPSRFSGSGSGTDFTFTISSLQPEDIATYYCQQFDLLPPTFGGGTKVEIK
notes: Tested as IgG detected with anti-human IgG Fc, compared with an IgG1 isotype control; also called antibody clone number 5; clone 5

Columns and labels:
[1] = biological target: T1, human CD112R over-expressed on Jurkat cells (human, UniProt Q6DKI7 1-326); assay: flow cytometry on Jurkat cells over-expressing human CD112R, 0.63 ug/mL antibody
T1 construct: whole, on cells; also called Jurkat-CD112R OE; PVRIG
T1 sequence (looked up): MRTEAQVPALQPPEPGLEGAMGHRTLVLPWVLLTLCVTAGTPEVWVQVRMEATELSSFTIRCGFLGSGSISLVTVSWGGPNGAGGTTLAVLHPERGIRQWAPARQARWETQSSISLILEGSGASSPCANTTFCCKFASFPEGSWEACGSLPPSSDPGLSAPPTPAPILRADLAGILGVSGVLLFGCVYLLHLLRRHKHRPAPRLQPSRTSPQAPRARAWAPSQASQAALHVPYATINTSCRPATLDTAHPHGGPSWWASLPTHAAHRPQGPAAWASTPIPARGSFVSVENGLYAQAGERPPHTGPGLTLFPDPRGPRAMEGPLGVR
Procedure: The ability of anti-CD112R antibodies to bind to CD112R expressed on cells was evaluated. 1×10⁵ Jurkat cells (acute T cell leukemia cell line, ATCC # TIB-152) that were either wild type or engineered to over-express human CD112R (Jurkat-CD112R OE) were added to each well of a 96-well V bottom plate and stained with either anti-CD112R antibodies or an IgG1 isotype control (0.63 μg/mL) for 1 hour at 4° C. Cells were washed twice with PBS+2% FCS and resuspended with Alexa Fluor® 647 anti-human IgG Fc antibody (Biolegend, Cat #409320) diluted 1:100 in PBS+2% FCS and incubated at 4° C. for 30 minutes. Cells were subsequently washed twice and resuspended in PBS+2% FCS. Cellular data was acquired using a LSRFortessa X-20 (BD Biosciences) and analyzed with FlowJo software (Tree Star).
Results are depicted in FIG. 1. Quantitation of antibody binding to Jurkat-CD112R OE cells was assessed by the geometric mean fluorescent intensity (gMFI) of the Alexa Fluor® 647 signal.

[2] = biological target: T2, mouse CD112R over-expressed on 293T cells (mouse); assay: flow cytometry on 293T cells over-expressing mouse CD112R
T2 construct: whole, on cells; also called 293T.mCD112R; 293T-mouse CD112R
Procedure: The ability of anti-CD112R antibodies to bind to mouse CD112R was evaluated on cells overexpressing mouse CD112R. 0.8×10⁵ 293T cells (ATCC CRL-3216) that were engineered to overexpress mouse CD112R (293T.mCD112R) were added to each well of a 96-well V bottom plate and stained with either anti-CD112R antibodies or an IgG1 isotype control at a starting concentration of […], with 3-fold serial dilutions for 30 minutes at 4° C. Cells were washed twice with PBS+2% FCS and resuspended with Alexa Fluor® 647 anti-human IgG Fc antibody (Biolegend, Cat #409320) diluted 1:100 in PBS+2% FCS and incubated at 4° C. for 20 minutes. Cells were subsequently washed twice and resuspended in PBS+2% FCS. Cellular data was acquired using a LSRFortessa X-20 (BD Biosciences) and analyzed with FlowJo software (Tree Star).
Results are depicted in FIG. 17 and Table 11. Quantitation of antibody binding to 293T.mCD112R cells was assessed by the geometric mean fluorescent intensity (gMFI) of the Alexa Fluor® 647 signal.

Row | Binder | Jurkat-CD112R over-expressed (OE) gMFI (fold increase over isotype) [1] [fold] | 293T-mouse CD112R gMFI (fold increase over isotype) [2] [fold]
1 | B1 | 53.2 | 
2 | B2 | 51.7 | 
3 | B3 | 27.9 | 14.9
4 | B4 | 23.8 | 74.8
5 | B5 | 34.2 | 73.3
6 | B6 | 31 | 76.3
7 | B7 | 37.3 | 79.4
8 | B8 | 32.1 | 55.6
9 | B9 | 33.8 | 72.2
10 | B10 | 55.7 | 
11 | B11 | 46.9 | 
12 | B12 | 63.9 | 
13 | B13 | 63.3 | 
